Experimental data from paper PMC2367731 (Nucleic Acids Research, 2008).

B1: human Nap1 (nucleosome assembly protein 1), His6 tag removed (natural protein)
chain: MADIDNKEQSELDQDLDDVEEVEEEETGEETKLKARQLTVQMMQNPQILAALQERLDGLVETPTGYIESLPRVVKRRVNALKNLQVKCAQIEAKFYEEVHDLERKYAVLYQPLFDKRFEIINAIYEPTEEECEWKPDEEDEISEELKEKAKIEDEKKDEEKEDPKGIPEFWLTVFKNVDLLSDMVQEHDEPILKHLKDIKVKFSDAGQPMSFVLEFHFEPNEYFTNEVLTKTYRMRSEPDDSDPFSFDGPEIMGCTGCQIDWKKGKNVTLKTIKKKQKHKGRGTVRTVTKTVSNDSFFNFFAPPEVPESGDLDDDAEAILAADFEIGHFLRERIIPRSVLYFTGEAIEDDDDDYDEEGEEADEEGEEEGDEENDPDYDPKKDQNPAECKQQ
B2: His6-tagged human Nap2 (natural protein)
chain: MADHSFSDGVPSDSVEAAKNASNTEKLTDQVMQNPRVLAALQERLDNVPHTPSSYIETLPKAVKRRINALKQLQVRCAHIEAKFYEEVHDLERKYAALYQPLFDKRREFITGDVEPTDAESEWHSENEEEEKLAGDMKSKVVVTEKAAATAEEPDPKGIPEFWFTIFRNVDMLSELVQEYDEPILKHLQDIKVKFSDPGQPMSFVLEFHFEPNDYFTNSVLTKTYKMKSEPDKADPFSFEGPEIVDCDGCTIDWKKGKNVTVKTIKKKQKHKGRGTVRTITKQVPNESFFNFFNPLKASGDGESLDEDSEFTLASDFEIGHFFRERIVPRAVLYFTGEAIEDDDNFEEGEEGEEEELEGDEEGEDEDDAEINPKV
B3: His6-tagged human Nap1 (natural protein)
chain: MADIDNKEQSELDQDLDDVEEVEEEETGEETKLKARQLTVQMMQNPQILAALQERLDGLVETPTGYIESLPRVVKRRVNALKNLQVKCAQIEAKFYEEVHDLERKYAVLYQPLFDKRFEIINAIYEPTEEECEWKPDEEDEISEELKEKAKIEDEKKDEEKEDPKGIPEFWLTVFKNVDLLSDMVQEHDEPILKHLKDIKVKFSDAGQPMSFVLEFHFEPNEYFTNEVLTKTYRMRSEPDDSDPFSFDGPEIMGCTGCQIDWKKGKNVTLKTIKKKQKHKGRGTVRTVTKTVSNDSFFNFFAPPEVPESGDLDDDAEAILAADFEIGHFLRERIIPRSVLYFTGEAIEDDDDDYDEEGEEADEEGEEEGDEENDPDYDPKKDQNPAECKQQ
B4: human Nap2, His6 tag removed (natural protein)
chain: MADHSFSDGVPSDSVEAAKNASNTEKLTDQVMQNPRVLAALQERLDNVPHTPSSYIETLPKAVKRRINALKQLQVRCAHIEAKFYEEVHDLERKYAALYQPLFDKRREFITGDVEPTDAESEWHSENEEEEKLAGDMKSKVVVTEKAAATAEEPDPKGIPEFWFTIFRNVDMLSELVQEYDEPILKHLQDIKVKFSDPGQPMSFVLEFHFEPNDYFTNSVLTKTYKMKSEPDKADPFSFEGPEIVDCDGCTIDWKKGKNVTVKTIKKKQKHKGRGTVRTITKQVPNESFFNFFNPLKASGDGESLDEDSEFTLASDFEIGHFFRERIVPRAVLYFTGEAIEDDDNFEEGEEGEEEELEGDEEGEDEDDAEINPKV

Key:
[1] = molecular target: T1, H3.1/H4 complex (His6 tags removed) (human, UniProt P68431;P62805); assay: native gel or EMSA
[2] = molecular target: T2, H3t/H4 complex (His6 tags removed) (human, UniProt Q16695;P62805); assay: native gel or EMSA
[3] = molecular target: His6-tagged H3t/H4 complex (human, UniProt Q16695;P62805); assay: pull-down
[4] = molecular target: His6-tagged H3.1/H4 complex (human, UniProt P68431;P62805); assay: pull-down
[5] = molecular target: T1, H3.1/H4 complex (His6 tags removed); assay: pull-down
[6] = molecular target: T2, H3t/H4 complex (His6 tags removed); assay: pull-down

Row | Binder | binding result [1] | binding result [2] | binding result [3] | binding result [4] | binding result [5] | binding result [6]
1 | B1 | binds | binds | binds | binds |  | 
2 | B2 |  |  |  |  | binds | binds
3 | B3 |  |  |  |  | binds | binds
4 | B4 |  |  | binds | binds |  | 
